In patent US20230382992A1 (Bristol-Myers Squibb, published 2023):

Molecular target: CD64 (UniProt P12314 16-288, limits assumed)
Experiment: assay not described

Chain of CD64 (P12314 16-288 limits assumed): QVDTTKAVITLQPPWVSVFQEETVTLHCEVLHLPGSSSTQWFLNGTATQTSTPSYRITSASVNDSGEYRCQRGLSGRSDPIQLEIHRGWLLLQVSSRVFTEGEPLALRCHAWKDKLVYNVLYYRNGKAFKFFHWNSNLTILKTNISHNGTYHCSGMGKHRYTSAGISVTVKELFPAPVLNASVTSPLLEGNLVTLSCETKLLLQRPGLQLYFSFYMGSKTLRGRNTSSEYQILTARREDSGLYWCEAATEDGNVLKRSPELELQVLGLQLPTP

B1: TIM3.18.IgG1.3 (antibody)
heavy: QLQLQESGPGLVKPSETLSLTCTVSGGSISSRSYYWGWIRQPPGKGLEWIGSIYYSGFTYYQPSLKSRVTISVDTSKNQFSLKLSSVTAADTAVYYCATGGPYGDYAHWFEPWGQGTLVTVSSASTKGPSVFPLAPSSKSTSGGTAALGCLVKDYFPEPVTVSWNSGALTSGVHTFPAVLQSSGLYSLSSVVTVPSSSLGTQTYICNVNHKPSNTKVDKRVEPKSCDKTHTCPPCPAPEAEGAPSVFLFPPKPKDTLMISRTPEVTCVVVDVSHEDPEVKFNWYVDGVEVHNAKTKPREEQYNSTYRVVSVLTVLHQDWLNGKEYKCKVSNKALPAPIEKTISKAKGQPREPQVYTLPPSREEMTKNQVSLTCLVKGFYPSDIAVEWESNGQPENNYKTTPPVLDSDGSFFLYSKLTVDKSRWQQGNVFSCSVMHEALHNHYTQKSLSLSPGK
light: not shown
notes: Effectorless IgG1.3f (L234A, L235E, G237A); It was radioiodinated for the Scatchard assays; also called TIM3.18 (13A3) IgG1.3f (N60Q/D101E)
- binding result: no binding
